Blank lines part the entries; values can stand above or below the molecule they belong to.
Assays:
[1] = target: GapR (full length, Caulobacter crescentus) (Caulobacter crescentus); test: SEC; 6.25 μM protein (calculated as tetramer); GapR without and with 20 μM 19 bp DNA on Superdex 200 Increase 10 300 GL; GapR and GapR6KtoE on HiLoad 16/600 Superdex 200 pg against protein standards
[2] = target: GapR (full length, Caulobacter crescentus) (Caulobacter crescentus); test: crystal structure; GapR or GapRΔ1-11 crystallised with 19-bp dsDNA (DNA not seen in the maps), sitting drop, room temperature, ammonium sulfate and PEG 3350; tetramer formed by crystallographic symmetry
[3] = target: GapR (full length, Caulobacter crescentus) (Caulobacter crescentus); test: SEC-MALS; 50 μl of GapR at 0.5 mM (calculated as tetramer), no DNA, Superdex-200 Increase 10 300 GL, SEC buffer (20 mM HEPES pH 7.4, 200 mM NaCl, 0.2 mM TCEP)
[4] = target: GapRΔ1-11 (Caulobacter crescentus); test: crystal structure; GapR or GapRΔ1-11 crystallised with 19-bp dsDNA (DNA not seen in the maps), sitting drop, room temperature, ammonium sulfate and PEG 3350; tetramer formed by crystallographic symmetry
[5] = target: T1, GapR (Caulobacter crescentus, UniProt Q9A385 1-89); test: EMSA; 0.425 uM tetramer, 1.7 uM DNA; EMSA: 10 mM Tris pH 7.5, 50 mM NaCl, 1 mM EDTA; 8% gel in 0.5x TBE pH 8.3 at 4 C; conditions: protein: recombinant; tags: N-terminal His8 cleaved by TEV (vector residues may remain); chain copies: 4; blunt
T1 sequence: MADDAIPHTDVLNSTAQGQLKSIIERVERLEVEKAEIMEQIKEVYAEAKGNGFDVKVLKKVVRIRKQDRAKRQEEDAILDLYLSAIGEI

stoichiometry N [1]: 4
stoichiometry N [2]: 4
stoichiometry N [3]: 4
Molecule: GapR (full length, Caulobacter crescentus) (natural protein)

stoichiometry N [4]: 4
Molecule: GapRΔ1-11 (domain or fragment)

B1: 19 bp oligonucleotide (19mer) (dsDNA)
DNA 1: GTTAAGCAACCGTTAACGG
DNA 2: CCGTTAACGGTTGCTTAAC
binding result [5]: binds

Source: PMC6853979, “Structures of GapR reveal a central channel which could accommodate B-DNA”
